Key:
[1] = biological target: T1, Ctr9 (full length, C-terminal hexahistidine tag) (S. cerevisiae, UniProt P89105 1-1077); assay: co-purification after coexpression (Ni-NTA, cation exchange, SEC); subunits coexpressed in E. coli from three vectors, cells colysed; Ni-NTA (hexahistidine tag on Ctr9), HiTrap SP cation exchange, Superose 6 size exclusion; SDS-PAGE, subunits confirmed by mass spectrometry; conditions: partners not purified
T1 construct: Ctr9, S. cerevisiae, full length, amplified from genomic DNA, in pET24b; source: E. coli BL21 CodonPlus(DE3)RIL, coexpressed with the other subunits; in lysate and purified as part of Paf1C; not shown: His6, C-terminal, kept
T1 sequence (looked up): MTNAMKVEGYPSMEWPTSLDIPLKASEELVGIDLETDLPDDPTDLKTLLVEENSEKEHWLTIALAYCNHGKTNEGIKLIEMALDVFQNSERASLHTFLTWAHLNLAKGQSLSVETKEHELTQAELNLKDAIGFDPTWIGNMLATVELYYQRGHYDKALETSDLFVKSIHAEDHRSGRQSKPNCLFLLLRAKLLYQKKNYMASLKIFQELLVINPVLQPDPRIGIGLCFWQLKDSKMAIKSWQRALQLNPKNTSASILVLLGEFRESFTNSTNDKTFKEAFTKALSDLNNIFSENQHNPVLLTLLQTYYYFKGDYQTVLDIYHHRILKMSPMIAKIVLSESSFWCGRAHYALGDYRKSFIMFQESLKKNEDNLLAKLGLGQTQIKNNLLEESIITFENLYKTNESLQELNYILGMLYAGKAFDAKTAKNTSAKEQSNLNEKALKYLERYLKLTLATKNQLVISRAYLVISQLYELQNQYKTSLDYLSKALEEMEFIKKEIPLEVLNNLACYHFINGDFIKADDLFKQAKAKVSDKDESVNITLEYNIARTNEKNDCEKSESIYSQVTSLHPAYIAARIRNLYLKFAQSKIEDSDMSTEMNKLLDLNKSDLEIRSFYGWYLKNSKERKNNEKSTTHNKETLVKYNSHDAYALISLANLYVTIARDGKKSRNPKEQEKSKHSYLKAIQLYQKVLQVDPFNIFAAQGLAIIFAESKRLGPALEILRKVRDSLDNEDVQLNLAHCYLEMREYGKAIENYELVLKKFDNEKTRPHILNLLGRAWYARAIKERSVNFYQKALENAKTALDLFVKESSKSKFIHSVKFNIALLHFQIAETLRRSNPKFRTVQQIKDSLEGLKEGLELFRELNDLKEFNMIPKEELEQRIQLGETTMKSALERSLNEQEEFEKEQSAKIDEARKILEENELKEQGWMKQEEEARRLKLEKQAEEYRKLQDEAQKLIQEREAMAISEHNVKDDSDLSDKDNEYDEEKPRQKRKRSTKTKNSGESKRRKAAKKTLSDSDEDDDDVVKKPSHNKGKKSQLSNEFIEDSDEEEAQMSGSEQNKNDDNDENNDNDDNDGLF

Leo1 = biological target: T2, Leo1 (S. cerevisiae, UniProt P38439 1-464); assay: cross-linking; Pol II-Paf1C-TFIIS EC after SEC, 425 μg/ml, 0.5 mM BS3, 30 min, 30 °C; trypsin, Orbitrap Fusion LC-MS/MS, pLink, FDR 1%; conditions: both partners purified
T2 construct: Leo1, S. cerevisiae, open reading frame chemically synthesized (codon-optimised), in pCDFDuet-1; source: E. coli BL21 CodonPlus(DE3)RIL, coexpressed with the other subunits; in lysate and purified as part of Paf1C
T2 sequence (looked up): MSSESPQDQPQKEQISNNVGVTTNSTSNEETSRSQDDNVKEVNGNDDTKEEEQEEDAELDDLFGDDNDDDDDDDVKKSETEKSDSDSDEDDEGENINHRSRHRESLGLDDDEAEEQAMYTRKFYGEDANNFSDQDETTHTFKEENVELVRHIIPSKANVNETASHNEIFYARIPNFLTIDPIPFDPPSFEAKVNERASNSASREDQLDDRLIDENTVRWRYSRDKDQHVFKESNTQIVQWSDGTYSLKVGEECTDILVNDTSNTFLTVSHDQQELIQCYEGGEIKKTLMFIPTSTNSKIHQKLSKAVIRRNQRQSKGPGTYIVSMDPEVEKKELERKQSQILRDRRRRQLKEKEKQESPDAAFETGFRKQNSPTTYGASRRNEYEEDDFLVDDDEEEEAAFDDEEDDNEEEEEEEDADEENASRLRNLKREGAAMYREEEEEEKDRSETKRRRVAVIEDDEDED

Rtf1 = biological target: T3, Rtf1 (S. cerevisiae, UniProt P53064 1-558); assay: as above; conditions: both partners purified
T3 construct: Rtf1, S. cerevisiae, full length, amplified from genomic DNA; source: E. coli BL21 CodonPlus(DE3)RIL, coexpressed with Cdc73; in lysate and purified as part of Paf1C

Ctr9-ΔC913 = biological target: T4, Ctr9-ΔC913 (S. cerevisiae, UniProt P89105 1-913); assay: as above; conditions: both partners purified
T4 construct: Ctr9, S. cerevisiae, variant lacking 164 amino acids at its C terminus (Ctr9-ΔC913); also called Ctr9 (in the Pol II-Paf1C-TFIIS EC); source: E. coli BL21 CodonPlus(DE3)RIL, coexpressed with the other subunits; in lysate and purified as part of Paf1C-Ctr9-ΔC913
T4 sequence (looked up): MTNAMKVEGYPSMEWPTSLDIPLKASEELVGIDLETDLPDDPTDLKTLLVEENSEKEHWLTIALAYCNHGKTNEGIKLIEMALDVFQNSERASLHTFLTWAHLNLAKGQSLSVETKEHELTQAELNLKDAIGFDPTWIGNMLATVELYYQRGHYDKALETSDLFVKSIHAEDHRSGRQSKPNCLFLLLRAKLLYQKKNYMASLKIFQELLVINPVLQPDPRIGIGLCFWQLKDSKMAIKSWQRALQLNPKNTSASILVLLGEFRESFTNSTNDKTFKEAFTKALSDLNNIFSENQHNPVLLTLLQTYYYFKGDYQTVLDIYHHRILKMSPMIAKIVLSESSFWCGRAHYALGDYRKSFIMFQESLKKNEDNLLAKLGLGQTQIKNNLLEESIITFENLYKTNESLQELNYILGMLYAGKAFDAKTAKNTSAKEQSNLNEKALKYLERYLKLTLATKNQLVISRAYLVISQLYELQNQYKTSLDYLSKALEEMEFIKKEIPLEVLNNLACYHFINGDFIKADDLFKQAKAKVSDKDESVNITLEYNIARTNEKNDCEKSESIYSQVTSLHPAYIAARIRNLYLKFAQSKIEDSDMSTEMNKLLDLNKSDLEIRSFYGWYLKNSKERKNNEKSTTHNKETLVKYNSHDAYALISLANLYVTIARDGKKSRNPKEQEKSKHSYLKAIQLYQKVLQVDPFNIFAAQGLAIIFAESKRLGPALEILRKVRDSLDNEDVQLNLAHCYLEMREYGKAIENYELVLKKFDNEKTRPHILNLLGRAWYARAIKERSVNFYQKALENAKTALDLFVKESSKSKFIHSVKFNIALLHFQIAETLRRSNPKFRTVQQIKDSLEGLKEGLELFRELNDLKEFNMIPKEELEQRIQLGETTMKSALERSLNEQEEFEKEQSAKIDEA

Rpb2 (Pol II subunit) = biological target: T5, Rpb2 (Pol II subunit) (yeast, UniProt P08518 1-1224); assay: as above; conditions: both partners purified
T5 construct: Rpb2, subunit of yeast Pol II; source: part of purified Pol II
T5 sequence (P08518 whole entry): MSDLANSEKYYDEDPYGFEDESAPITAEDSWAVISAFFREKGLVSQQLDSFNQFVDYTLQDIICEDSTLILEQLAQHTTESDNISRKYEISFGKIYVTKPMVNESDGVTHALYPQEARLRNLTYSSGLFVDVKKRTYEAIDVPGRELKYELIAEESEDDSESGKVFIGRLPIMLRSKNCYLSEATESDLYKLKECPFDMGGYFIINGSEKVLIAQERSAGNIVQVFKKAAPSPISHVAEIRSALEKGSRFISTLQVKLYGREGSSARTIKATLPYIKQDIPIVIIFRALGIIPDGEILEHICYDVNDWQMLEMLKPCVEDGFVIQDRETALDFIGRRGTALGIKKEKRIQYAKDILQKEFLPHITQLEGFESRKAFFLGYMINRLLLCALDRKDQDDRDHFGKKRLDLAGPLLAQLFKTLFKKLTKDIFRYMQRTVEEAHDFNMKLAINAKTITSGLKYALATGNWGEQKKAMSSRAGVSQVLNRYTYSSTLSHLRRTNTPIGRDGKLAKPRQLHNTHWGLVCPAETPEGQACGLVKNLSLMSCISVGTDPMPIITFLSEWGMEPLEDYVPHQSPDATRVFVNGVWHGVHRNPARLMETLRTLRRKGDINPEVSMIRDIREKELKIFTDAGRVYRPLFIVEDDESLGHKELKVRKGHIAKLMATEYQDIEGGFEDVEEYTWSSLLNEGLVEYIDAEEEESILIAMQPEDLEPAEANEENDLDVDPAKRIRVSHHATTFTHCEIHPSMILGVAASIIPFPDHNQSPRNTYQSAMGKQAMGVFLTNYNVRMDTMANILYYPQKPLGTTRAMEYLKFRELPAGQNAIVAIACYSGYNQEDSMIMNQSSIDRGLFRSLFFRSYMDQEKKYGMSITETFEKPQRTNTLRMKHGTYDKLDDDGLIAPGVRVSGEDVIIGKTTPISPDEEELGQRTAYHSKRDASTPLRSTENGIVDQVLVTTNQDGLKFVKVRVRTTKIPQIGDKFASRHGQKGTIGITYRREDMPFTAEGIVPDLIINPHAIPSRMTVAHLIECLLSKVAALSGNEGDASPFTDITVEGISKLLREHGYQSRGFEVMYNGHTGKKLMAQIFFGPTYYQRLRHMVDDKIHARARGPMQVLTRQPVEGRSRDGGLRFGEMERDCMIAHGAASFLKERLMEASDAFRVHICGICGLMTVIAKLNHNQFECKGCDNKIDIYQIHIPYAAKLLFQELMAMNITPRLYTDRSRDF

T3 sequence (P53064 whole entry): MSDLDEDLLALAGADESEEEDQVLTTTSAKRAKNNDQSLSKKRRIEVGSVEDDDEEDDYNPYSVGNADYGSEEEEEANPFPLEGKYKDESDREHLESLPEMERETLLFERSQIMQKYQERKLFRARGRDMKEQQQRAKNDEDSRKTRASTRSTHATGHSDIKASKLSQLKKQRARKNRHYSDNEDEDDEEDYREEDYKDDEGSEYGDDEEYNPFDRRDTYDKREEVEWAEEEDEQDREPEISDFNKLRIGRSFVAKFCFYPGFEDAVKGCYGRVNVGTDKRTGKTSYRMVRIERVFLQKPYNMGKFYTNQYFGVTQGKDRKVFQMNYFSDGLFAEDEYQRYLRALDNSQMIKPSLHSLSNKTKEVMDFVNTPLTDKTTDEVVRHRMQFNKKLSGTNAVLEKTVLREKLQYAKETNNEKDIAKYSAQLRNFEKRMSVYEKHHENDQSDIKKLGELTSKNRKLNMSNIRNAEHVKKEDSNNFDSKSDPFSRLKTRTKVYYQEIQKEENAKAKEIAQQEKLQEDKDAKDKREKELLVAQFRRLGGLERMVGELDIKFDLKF

binding result [1]: binds
binding result (Leo1): binds
binding result (Rtf1): binds
binding result (Ctr9-ΔC913): binds
binding result (Rpb2 (Pol II subunit)): binds
B1: Paf1 (natural protein, S. cerevisiae, UniProt P38351 1-445, looked up)
chain: MSKKQEYIAPIKYQNSLPVPQLPPKLLVYPESPETNADSSQLINSLYIKTNVTNLIQQDEDLGMPVDLMKFPGLLNKLDSKLLYGFDNVKLDKDDRILLRDPRIDRLTKTDISKVTFLRRTEYVSNTIAAHDNTSLKRKRRLDDGDSDDENLDVNHIISRVEGTFNKTDKWQHPVKKGVKMVKKWDLLPDTASMDQVYFILKFMGSASLDTKEKKSLNTGIFRPVELEEDEWISMYATDHKDSAILENELEKGMDEMDDDSHEGKIYKFKRIRDYDMKQVAEKPMTELAIRLNDKDGIAYYKPLRSKIELRRRRVNDIIKPLVKEHDIDQLNVTLRNPSTKEANIRDKLRMKFDPINFATVDEEDDEDEEQPEDVKKESEGDSKTEGSEQEGENEKDEEIKQEKENEQDEENKQDENRAADTPETSDAVHTEQKPEEEKETLQEE
notes: Paf1, S. cerevisiae, open reading frame chemically synthesized (codon-optimised), in pCDFDuet-1; also called polymerase-associated factor 1; source: E. coli BL21 CodonPlus(DE3)RIL, coexpressed with the other subunits; in lysate and purified as part of Paf1C

— paper PMC5467213, “Architecture of the RNA polymerase II-Paf1C-TFIIS transcription elongation complex” (Nature Communications, 2017)
